In patent US20110263454A1, “Methods of Identifying Functional Characteristics of Promoters, Transcription Modifying Proteins and Transcription Modulating Agents” (Salk Institute for Biological Studies, priority 2008, published 2011):

How the values were obtained:
Bmal1 promoter = assay: NHR-promoter luciferase screen, Bmal1 promoter; assay type: cell-based, mouse; conditions: for Luc. act., normalized to lacZ / Normalized Luc. act., normalized to control: Bmal1 promoter, HR component without or with ligand; for mBmal1 promoter reporter activity: transcription factor +/- ligand, control = 1.00; for regulation of the Bmal1 promoter: FIG. 2c, in words
Experimental: (§1) The use, feasibility, and reproducibility of the functional NHR-promoter screen in a 48-well format have been tested validated. Briefly, there were co-expressed 50 ng of each NHR/NHR homodimer or NHR/RXR heterodimer with 100 ng promoter/luciferase construct and 50 ng of LacZ (as a control for transfection efficiency) in CV-1 cells using Fugene HD (Roche) as a transfection reagent (alternatively or additionally, a CMV-YFP construct can be used as a transfection control). Each of the nuclear hormone receptors that were used in these experiments was cloned into a pcDNA3.1 vector and comprised a C-terminally linked V5H6 tag. Twenty-four hours after transfection, appropriate ligands were added, where applicable, (see Table 5 for various ligands and concentrations and after 48 hrs, samples were assayed for luciferase and LacZ activity. To measure for luciferase activity 15 ul of sample was added to 30 ul of luciferase buffer (20 mM tricine, 1.07 mM MgCarbonate, 2.67 mM MgSulfate, 0.1 mM Naz-EDTA, 5 mM DTT, 5 mM ATP, 0.15 mg/ml CoA, 0.5 mM Luciferin), mixed briefly, and run in a Perkin Elmer Victor 5 luminometer. Thus, the functional NHR-promoter screen was used to observe the transcriptional activity of 29 promoters from various physiological pathways including inflammation, lipid and sugar metabolism, cholesterol transport, xenobiotic metabolism, and circadian rhythm.
(§2) The promoters that facilitate transcription of the indicated gene products that were tested using the protocols described herein are listed in the first row of the table. The nuclear hormone receptors and, where applicable, ligands that were assayed for their transcriptional effects on the promoters are listed in the first column of the table. The data represent the luciferase activity of each sample normalized to both the lacZ activity of that sample and to a control, e.g., no NHR or ligand, as customary in the art. As described previously, these normalizations allow the transcriptional activity of each reporter cell to be compared to other samples.
(§3) Tables 7-40 show the transcriptional effects of the hormone receptors, and, where applicable, ligands (orphan receptors are screened without ligand), on each individual promoter. […] The control data of each table are shown in their last rows.

SREBP1c promoter = assay: NHR-promoter luciferase screen, SREBP1c promoter; assay type: cell-based, mouse; conditions: for Luc. act., normalized to lacZ / Normalized Luc. act., normalized to control: SREBP1c promoter, HR component without or with ligand; for mSREBP1-c promoter reporter activity: transcription factor +/- ligand, control = 1.00
Experimental: as §1, §2, §3

B1: RARg: Retinoic acid receptor γ (NR1B3), nuclear hormone receptor cDNA driver (protein, UniProt P13631 1-454, looked up)
Retinoic acid receptor gamma: MATNKERLFAAGALGPGSGYPGAGFPFAFPGALRGSPPFEMLSPSFRGLGQPDLPKEMASLSVETQSTSSEEMVPSSPSPPPPPRVYKPCFVCNDKSSGYHYGVSSCEGCKGFFRRSIQKNMVYTCHRDKNCIINKVTRNRCQYCRLQKCFEVGMSKEAVRNDRNKKKKEVKEEGSPDSYELSPQLEELITKVSKAHQETFPSLCQLGKYTTNSSADHRVQLDLGLWDKFSELATKCIIKIVEFAKRLPGFTGLSIADQITLLKAACLDILMLRICTRYTPEQDTMTFSDGLTLNRTQMHNAGFGPLTDLVFAFAGQLLPLEMDDTETGLLSAICLICGDRMDLEEPEKVDKLQEPLLEALRLYARRRRPSQPYMFPRMLMKITDLRGISTKGAERAITLKMEIPGPMPPLIREMLENPEMFEDDSSQPGPHPNASSEDEVPGGQGKGGLKSPA
Bmal1 promoter
  Luc. act., normalized to lacZ: 19.1
  Normalized Luc. act., normalized to control: 1.2
  mBmal1 promoter reporter activity: 1.22
SREBP1c promoter
  Luc. act., normalized to lacZ: 1052.4
  Normalized Luc. act., normalized to control: 3.3
  mSREBP1-c promoter reporter activity: 3.27

B2: RVRb: Rev-Erb β (NR1D2, alternative name RVR), cDNA driver (protein, UniProt Q14995 1-579, looked up)
Nuclear receptor subfamily 1 …: MEVNAGGVIAYISSSSSASSPASCHSEGSENSFQSSSSSVPSSPNSSNSDTNGNPKNGDLANIEGILKNDRIDCSMKTSKSSAPGMTKSHSGVTKFSGMVLLCKVCGDVASGFHYGVHACEGCKGFFRRSIQQNIQYKKCLKNENCSIMRMNRNRCQQCRFKKCLSVGMSRDAVRFGRIPKREKQRMLIEMQSAMKTMMNSQFSGHLQNDTLVEHHEQTALPAQEQLRPKPQLEQENIKSSSPPSSDFAKEEVIGMVTRAHKDTFMYNQEQQENSAESMQPQRGERIPKNMEQYNLNHDHCGNGLSSHFPCSESQQHLNGQFKGRNIMHYPNGHAICIANGHCMNFSNAYTQRVCDRVPIDGFSQNENKNSYLCNTGGRMHLVCPMSKSPYVDPHKSGHEIWEEFSMSFTPAVKEVVEFAKRIPGFRDLSQHDQVNLLKAGTFEVLMVRFASLFDAKERTVTFLSGKKYSVDDLHSMGAGDLLNSMFEFSEKLNALQLSDEEMSLFTAVVLVSADRSGIENVNSVEALQETLIRALRTLIMKNHPNEASIFTKLLLKLPDLRSLNNMHSEELLAFKVHP
Bmal1 promoter
  Luc. act., normalized to lacZ: 0.8
  Normalized Luc. act., normalized to control: 0.1
  regulation of the Bmal1 promoter: specific repression
  mBmal1 promoter reporter activity: 0.05
SREBP1c promoter
  Luc. act., normalized to lacZ: 721.7
  Normalized Luc. act., normalized to control: 2.2
  mSREBP1-c promoter reporter activity: 2.24

B3: FXR: Farnesoid X Receptor (NR1H4), cDNA driver (protein, UniProt Q96RI1 1-486, looked up)
Bile acid receptor: MVMQFQGLENPIQISPHCSCTPSGFFMEMMSMKPAKGVLTEQVAGPLGQNLEVEPYSQYSNVQFPQVQPQISSSSYYSNLGFYPQQPEEWYSPGIYELRRMPAETLYQGETEVAEMPVTKKPRMGASAGRIKGDELCVVCGDRASGYHYNALTCEGCKGFFRRSITKNAVYKCKNGGNCVMDMYMRRKCQECRLRKCKEMGMLAECMYTGLLTEIQCKSKRLRKNVKQHADQTVNEDSEGRDLRQVTSTTKSCREKTELTPDQQTLLHFIMDSYNKQRMPQEITNKILKEEFSAEENFLILTEMATNHVQVLVEFTKKLPGFQTLDHEDQIALLKGSAVEAMFLRSAEIFNKKLPSGHSDLLEERIRNSGISDEYITPMFSFYKSIGELKMTQEEYALLTAIVILSPDRQYIKDREAVEKLQEPLLDVLQKLCKIHQPENPQHFACLLGRLTELRTFNHHHAEMLMSWRVNDHKFTPLLCEIWDVQ
Bmal1 promoter
  Luc. act., normalized to lacZ: 15.6
  Normalized Luc. act., normalized to control: 1.0
  mBmal1 promoter reporter activity: 1.00
SREBP1c promoter
  Luc. act., normalized to lacZ: 551.0
  Normalized Luc. act., normalized to control: 1.7
  mSREBP1-c promoter reporter activity: 1.71

B4: RVRa: Rev-Erb α (NR1D1), cDNA driver (protein, UniProt P20393 1-614, looked up)
Nuclear receptor subfamily 1 …: MTTLDSNNNTGGVITYIGSSGSSPSRTSPESLYSDNSNGSFQSLTQGCPTYFPPSPTGSLTQDPARSFGSIPPSLSDDGSPSSSSSSSSSSSSFYNGSPPGSLQVAMEDSSRVSPSKSTSNITKLNGMVLLCKVCGDVASGFHYGVHACEGCKGFFRRSIQQNIQYKRCLKNENCSIVRINRNRCQQCRFKKCLSVGMSRDAVRFGRIPKREKQRMLAEMQSAMNLANNQLSSQCPLETSPTQHPTPGPMGPSPPPAPVPSPLVGFSQFPQQLTPPRSPSPEPTVEDVISQVARAHREIFTYAHDKLGSSPGNFNANHASGSPPATTPHRWENQGCPPAPNDNNTLAAQRHNEALNGLRQAPSSYPPTWPPGPAHHSCHQSNSNGHRLCPTHVYAAPEGKAPANSPRQGNSKNVLLACPMNMYPHGRSGRTVQEIWEDFSMSFTPAVREVVEFAKHIPGFRDLSQHDQVTLLKAGTFEVLMVRFASLFNVKDQTVMFLSRTTYSLQELGAMGMGDLLSAMFDFSEKLNSLALTEEELGLFTAVVLVSADRSGMENSASVEQLQETLLRALRALVLKNRPLETSRFTKLLLKLPDLRTLNNMHSEKLLSFRVDAQ
Bmal1 promoter
  Luc. act., normalized to lacZ: 2.5
  Normalized Luc. act., normalized to control: 0.2
  regulation of the Bmal1 promoter: specific repression
  mBmal1 promoter reporter activity: 0.16
SREBP1c promoter
  Luc. act., normalized to lacZ: 574.4
  Normalized Luc. act., normalized to control: 1.8
  mSREBP1-c promoter reporter activity: 1.78

B5: PPARd: Peroxisome proliferator activated receptor δ (NR1C2), cDNA driver (protein, UniProt Q03181 1-441, looked up)
Peroxisome …: MEQPQEEAPEVREEEEKEEVAEAEGAPELNGGPQHALPSSSYTDLSRSSSPPSLLDQLQMGCDGASCGSLNMECRVCGDKASGFHYGVHACEGCKGFFRRTIRMKLEYEKCERSCKIQKKNRNKCQYCRFQKCLALGMSHNAIRFGRMPEAEKRKLVAGLTANEGSQYNPQVADLKAFSKHIYNAYLKNFNMTKKKARSILTGKASHTAPFVIHDIETLWQAEKGLVWKQLVNGLPPYKEISVHVFYRCQCTTVETVRELTEFAKSIPSFSSLFLNDQVTLLKYGVHEAIFAMLASIVNKDGLLVANGSGFVTREFLRSLRKPFSDIIEPKFEFAVKFNALELDDSDLALFIAAIILCGDRPGLMNVPRVEAIQDTILRALEFHLQANHPDAQYLFPKLLQKMADLRQLVTEHAQMMQRIKKTETETSLHPLLQEIYKDMY
Bmal1 promoter
  Luc. act., normalized to lacZ: 11.2
  Normalized Luc. act., normalized to control: 0.7
  mBmal1 promoter reporter activity: 0.72
SREBP1c promoter
  Luc. act., normalized to lacZ: 658.7
  Normalized Luc. act., normalized to control: 2.0
  mSREBP1-c promoter reporter activity: 2.04

B6: RARa: Retinoic acid receptor α (NR1B1), nuclear hormone receptor cDNA driver (protein, UniProt P10276 1-462, looked up)
Retinoic acid receptor alpha: MASNSSSCPTPGGGHLNGYPVPPYAFFFPPMLGGLSPPGALTTLQHQLPVSGYSTPSPATIETQSSSSEEIVPSPPSPPPLPRIYKPCFVCQDKSSGYHYGVSACEGCKGFFRRSIQKNMVYTCHRDKNCIINKVTRNRCQYCRLQKCFEVGMSKESVRNDRNKKKKEVPKPECSESYTLTPEVGELIEKVRKAHQETFPALCQLGKYTTNNSSEQRVSLDIDLWDKFSELSTKCIIKTVEFAKQLPGFTTLTIADQITLLKAACLDILILRICTRYTPEQDTMTFSDGLTLNRTQMHNAGFGPLTDLVFAFANQLLPLEMDDAETGLLSAICLICGDRQDLEQPDRVDMLQEPLLEALKVYVRKRRPSRPHMFPKMLMKITDLRSISAKGAERVITLKMEIPGSMPPLIQEMLENSEGLDTLSGQPGGGGRDGGGLAPPPGSCSPSLSPSSNRSSPATHSP
Bmal1 promoter
  Luc. act., normalized to lacZ: 18.9
  Normalized Luc. act., normalized to control: 1.2
  mBmal1 promoter reporter activity: 1.21
SREBP1c promoter
  Luc. act., normalized to lacZ: 854.2
  Normalized Luc. act., normalized to control: 2.7
  mSREBP1-c promoter reporter activity: 2.65

B7: RARb: Retinoic acid receptor β (NR1B2), nuclear hormone receptor cDNA driver (protein, UniProt P10826 1-455, looked up)
Retinoic acid receptor beta: MTTSGHACPVPAVNGHMTHYPATPYPLLFPPVIGGLSLPPLHGLHGHPPPSGCSTPSPATIETQSTSSEELVPSPPSPLPPPRVYKPCFVCQDKSSGYHYGVSACEGCKGFFRRSIQKNMIYTCHRDKNCVINKVTRNRCQYCRLQKCFEVGMSKESVRNDRNKKKKETSKQECTESYEMTAELDDLTEKIRKAHQETFPSLCQLGKYTTNSSADHRVRLDLGLWDKFSELATKCIIKIVEFAKRLPGFTGLTIADQITLLKAACLDILILRICTRYTPEQDTMTFSDGLTLNRTQMHNAGFGPLTDLVFTFANQLLPLEMDDTETGLLSAICLICGDRQDLEEPTKVDKLQEPLLEALKIYIRKRRPSKPHMFPKILMKITDLRSISAKGAERVITLKMEIPGSMPPLIQEMLENSEGHEPLTPSSSGNTAEHSPSISPSSVENSGVSQSPLVQ
Bmal1 promoter
  Luc. act., normalized to lacZ: 15.6
  Normalized Luc. act., normalized to control: 1.0
  mBmal1 promoter reporter activity: 1.00
SREBP1c promoter
  Luc. act., normalized to lacZ: 1056.4
  Normalized Luc. act., normalized to control: 3.3
  mSREBP1-c promoter reporter activity: 3.28
